Measured values: US20250129168A1

How the values were obtained:
[1] = molecular target: Fc gamma receptor CD16a F variant (human) (UniProt P08637); assay: ELISA, plate coated with recombinant huCD16a (F variant), detection with peroxidase anti-human IgG F(ab')2, OD 450 nm - 630 nm
[2] = molecular target: cynomolgus monkey Dectin-1 (cynomolgus monkey); assay: flow cytometry on cynomolgus monkey monocytes
[3] = molecular target: human Dectin-1 isoform B (human) (UniProt Q9BXN2); assay: flow cytometry on HEK-Blue hDectin-1b cells
[4] = molecular target: human Dectin-1 isoform A (human) (UniProt Q9BXN2); assay: flow cytometry on HEK-Blue hDectin-1a cells
[5] = molecular target: human Dectin-1 isoform A (human) (UniProt Q9BXN2); assay: flow cytometry on HEK293F hDectin-1a FL cells
[6] = molecular target: human Dectin-1 (isoform not given) (human) (UniProt Q9BXN2); assay: flow cytometry on human monocytes
[7] = molecular target: cynomolgus monkey Dectin-1 (cynomolgus monkey); assay: flow cytometry, cynomolgus monkey monocytes

Sequence of human Dectin-1 isoform A (human) (Q9BXN2 whole entry, canonical isoform): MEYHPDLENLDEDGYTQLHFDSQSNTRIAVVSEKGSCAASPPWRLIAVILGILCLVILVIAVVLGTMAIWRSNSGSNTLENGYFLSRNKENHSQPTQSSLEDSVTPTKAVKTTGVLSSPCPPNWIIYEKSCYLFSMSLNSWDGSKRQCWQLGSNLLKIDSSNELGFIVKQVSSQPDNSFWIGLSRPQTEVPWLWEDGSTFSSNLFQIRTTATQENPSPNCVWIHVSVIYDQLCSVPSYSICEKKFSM
Sequence of human Dectin-1 (isoform not given) (human) (Q9BXN2 whole entry, canonical isoform): as above
Sequence of human Dectin-1 isoform B (human) (Q9BXN2 other isoform, or with tags, fused parts or gaps): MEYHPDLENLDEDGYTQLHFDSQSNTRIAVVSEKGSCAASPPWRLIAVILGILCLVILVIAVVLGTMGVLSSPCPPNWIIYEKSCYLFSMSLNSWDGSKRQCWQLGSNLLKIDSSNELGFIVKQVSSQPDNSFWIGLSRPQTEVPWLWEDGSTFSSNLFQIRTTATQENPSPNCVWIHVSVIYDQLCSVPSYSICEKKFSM
Sequence of cynomolgus monkey Dectin-1 (cynomolgus monkey) (chain, as listed by the source): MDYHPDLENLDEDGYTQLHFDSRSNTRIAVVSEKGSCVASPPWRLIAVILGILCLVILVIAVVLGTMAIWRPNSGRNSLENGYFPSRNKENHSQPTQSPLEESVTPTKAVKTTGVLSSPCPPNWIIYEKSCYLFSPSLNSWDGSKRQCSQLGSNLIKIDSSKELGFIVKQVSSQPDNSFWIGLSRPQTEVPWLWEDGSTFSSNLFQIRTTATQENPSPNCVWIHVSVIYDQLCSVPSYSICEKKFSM
Sequence of Fc gamma receptor CD16a F variant (human) (P08637 17-208 limits assumed, change not shown): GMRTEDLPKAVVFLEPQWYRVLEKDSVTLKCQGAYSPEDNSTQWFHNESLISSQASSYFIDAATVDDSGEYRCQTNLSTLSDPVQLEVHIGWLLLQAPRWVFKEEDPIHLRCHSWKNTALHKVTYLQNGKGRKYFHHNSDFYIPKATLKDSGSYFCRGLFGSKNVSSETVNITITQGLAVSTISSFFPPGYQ

EC50 (read off the curve) [1] [µg/mL]	EC50 [2] [nM]	EC50 [3] [nM]	EC50 [4] [nM]	EC50 [5] [nM]	EC50 [6] [nM]	EC50 [7] [nM]	Substance
0.07							Control (antibody)
	16.5	0.9	0.8	1.2	0.3	16	commercial anti-Dectin-1 antibody 259931
		12	1.9	2.4	1.4		commercial anti-Dectin-1 antibody GE2
